Measured values published in doi:10.1101/2020.11.17.387910 (bioRxiv, 2020).

Target: the molecule itself
Assay: SAXS

B1: human P5 (PDIA6), full-length (enzyme, UniProt Q15084 20-440, looked up)
chain: LYSSSDDVIELTPSNFNREVIQSDSLWLVEFYAPWCGHCQRLTPEWKKAATALKDVVKVGAVDADKHHSLGGQYGVQGFPTIKIFGSNKNRPEDYQGGRTGEAIVDAALSALRQLVKDRLGGRSGGYSSGKQGRSDSSSKKDVIELTDDSFDKNVLDSEDVWMVEFYAPWCGHCKNLEPEWAAAASEVKEQTKGKVKLAAVDATVNQVLASRYGIRGFPTIKIFQKGESPVDYDGGRTRSDIVSRALDLFSDNAPPPELLEIINEDIAKRTCEEHQLCVVAVLPHILDTGAAGRNSYLEVLLKLADKYKKKMWGWLWTEAGAQSELETALGIGGFGYPAMAAINARKMKFALLKGSFSEQGINEFLRELSFGRGSTAPVGGGAFPTIVEREPWDGRDGELPVEDDIDLSDVELDDLGKDEL
- stoichiometry N: 2
